Measured values published in article PMC4211656.

Tested on: CYT-19
Assay: ensemble unwinding (CYT-19 concentration dependence)
Settings: kmax 0.86 min-1; functional K1/2 for unwinding; substrate probably -1d,rSA5 = CCCUCdUAAAAA (2'-deoxy at U -1); Ribozyme buffer for complex assembly: 50 mM MOPS pH 7.0, 10 mM MgCl2, 25 C; exact CYT-19/Ded1 assay buffer not in the material

Substance: L-16/ScaI group I ribozyme with standard 11-bp P1 (ensemble)
- K half: 5.7 µM
